B1: POU domain, class 3, transcription factor 3, residues 408 to 463; numbered along this chain, P20264 (parent)
chain: KKRTSIEVSVKGALESHFLKCPKPSAQEITNLADSLQLEKEVVRVWFCNRRQKEKR

Data on 47 variants can be found in the Human Domainome abundance scans (Beltran et al. 2025).

± gives the uncertainty stated by the source.

This data set covers variants of B1. Kind of data set: abundance fitness (aPCA) (normalised: wild type 0, dead -1); higher = more abundant; growth selection in yeast, the domain comes from the species named. Conditions: Homo sapiens.
With KKRTSIEVSVKGALESHFLKCPKPSAQEITNLADSLQLNKEVVRVWFCNRRQKEKR [E39N], the abundance fitness was 0.013 ± 0.13.

Take KKRTSIEVSVKGALESHFLKCPKPSAQEITNLADSLQLIKEVVRVWFCNRRQKEKR [E39I]: the abundance fitness is -0.919 ± 0.17.

As to KKRTSIEVSVKGALESHFLKCPKPSAQEITNLADSLQLRKEVVRVWFCNRRQKEKR [E39R], the abundance fitness was -0.327 ± 0.064.

Turning to KKRTSIEVSVKGALESHFLKCPKPSAQEITNLADSLQLCKEVVRVWFCNRRQKEKR [E39C], the abundance fitness is -0.109 ± 0.079.

With KKRTSIEVSVKGALESHFLKCPKPSAQEITNLADSLQLMKEVVRVWFCNRRQKEKR [E39M], the abundance fitness is -0.428 ± 0.11.

Take KKRTSIEVSVKGALESHFLKCPKPSAQEITNLADSLQLSKEVVRVWFCNRRQKEKR [E39S]: the abundance fitness is -0.055 ± 0.07.

As for KKRTSIEVSVKGALESHFLKCPKPSAQEITNLADSLQLLKEVVRVWFCNRRQKEKR [E39L], the abundance fitness is -0.719 ± 0.11.

Take KKRTSIEVSVKGALESHFLKCPKPSAQEITNLADSLQLFKEVVRVWFCNRRQKEKR [E39F]: the abundance fitness was -0.948 ± 0.19.

KKRTSIEVSVKGALESHFLKCPKPSAQEITNLADSLQLPKEVVRVWFCNRRQKEKR [E39P]: the abundance fitness was -0.116 ± 0.1.

With KKRTSIEVSVKGALESHFLKCPKPSAQEITNLADSLQLQKEVVRVWFCNRRQKEKR [E39Q], the abundance fitness was -0.322 ± 0.099.

KKRTSIEVSVKGALESHFLKCPKPSAQEITNLADSLQLYKEVVRVWFCNRRQKEKR [E39Y]: the abundance fitness is -0.927 ± 0.15.

In the case of KKRTSIEVSVKGALESHFLKCPKPSAQEITNLADSLQLGKEVVRVWFCNRRQKEKR [E39G], the abundance fitness was -0.257 ± 0.064.

Regarding KKRTSIEVSVKGALESHFLKCPKPSAQEITNLADSLQLHKEVVRVWFCNRRQKEKR [E39H], the abundance fitness was -0.224 ± 0.13.

Turning to KKRTSIEVSVKGALESHFLKCPKPSAQEITNLADSLQLTKEVVRVWFCNRRQKEKR [E39T], the abundance fitness is -0.074 ± 0.1.

For KKRTSIEVSVKGALESHFLKCPKPSAQEITNLADSLQLKKEVVRVWFCNRRQKEKR [E39K], the abundance fitness was -0.258 ± 0.092.

Regarding KKRTSIEVSVKGALESHFLKCPKPSAQEITNLADSLQLEKMVVRVWFCNRRQKEKR [E41M], the abundance fitness was -0.534 ± 0.1.

Regarding KKRTSIEVSVKGALESHFLKCPKPSAQEITNLADSLQLEKTVVRVWFCNRRQKEKR [E41T], the abundance fitness was -0.308 ± 0.098.

Take KKRTSIEVSVKGALESHFLKCPKPSAQEITNLADSLQLEKPVVRVWFCNRRQKEKR [E41P]: the abundance fitness was -0.933 ± 0.17.

Consider KKRTSIEVSVKGALESHFLKCPKPSAQEITNLADSLQLEKAVVRVWFCNRRQKEKR [E41A], for which the abundance fitness was -0.344 ± 0.072.

As for KKRTSIEVSVKGALESHFLKCPKPSAQEITNLADSLQLEKGVVRVWFCNRRQKEKR [E41G], the abundance fitness is -0.305 ± 0.052.

As for KKRTSIEVSVKGALESHFLKCPKPSAQEITNLADSLQLEKNVVRVWFCNRRQKEKR [E41N], the abundance fitness was -0.318 ± 0.13.

Consider KKRTSIEVSVKGALESHFLKCPKPSAQEITNLADSLQLEKCVVRVWFCNRRQKEKR [E41C], for which the abundance fitness is -0.54 ± 0.1.

As for KKRTSIEVSVKGALESHFLKCPKPSAQEITNLADSLQLEKFVVRVWFCNRRQKEKR [E41F], the abundance fitness was -1.1 ± 0.39.

With KKRTSIEVSVKGALESHFLKCPKPSAQEITNLADSLQLEKRVVRVWFCNRRQKEKR [E41R], the abundance fitness is -0.352 ± 0.057.

Consider KKRTSIEVSVKGALESHFLKCPKPSAQEITNLADSLQLEKVVVRVWFCNRRQKEKR [E41V], for which the abundance fitness is -0.884 ± 0.09.

Consider KKRTSIEVSVKGALESHFLKCPKPSAQEITNLADSLQLEKSVVRVWFCNRRQKEKR [E41S], for which the abundance fitness was -0.243 ± 0.071.

For KKRTSIEVSVKGALESHFLKCPKPSAQEITNLADSLQLEKDVVRVWFCNRRQKEKR [E41D], the abundance fitness is 0.037 ± 0.12.

Turning to KKRTSIEVSVKGALESHFLKCPKPSAQEITNLADSLQLEKYVVRVWFCNRRQKEKR [E41Y], the abundance fitness was -0.625 ± 0.17.

KKRTSIEVSVKGALESHFLKCPKPSAQEITNLADSLQLEKWVVRVWFCNRRQKEKR [E41W]: the abundance fitness was -0.3 ± 0.089.

As for KKRTSIEVSVKGALESHFLKCPKPSAQEITNLADSLQLEKQVVRVWFCNRRQKEKR [E41Q], the abundance fitness is -0.414 ± 0.14.

As for KKRTSIEVSVKGALESHFLKCPKPSAQEITNLADSLQLEKHVVRVWFCNRRQKEKR [E41H], the abundance fitness is -0.196 ± 0.12.

As for KKRTSIEVSVKGALESHFLKCPKPSAQEITNLADSLQLEKEVTRVWFCNRRQKEKR [V43T], the abundance fitness was -0.595 ± 0.14.

On to KKRTSIEVSVKGALESHFLKCPKPSAQEITNLADSLQLEKEVCRVWFCNRRQKEKR [V43C], for which the abundance fitness is -0.714 ± 0.13.

For the variant KKRTSIEVSVKGALESHFLKCPKPSAQEITNLADSLQLEKEVLRVWFCNRRQKEKR [V43L], the abundance fitness is -0.382 ± 0.085.

For the variant KKRTSIEVSVKGALESHFLKCPKPSAQEITNLADSLQLEKEVWRVWFCNRRQKEKR [V43W], the abundance fitness was -0.994 ± 0.13.

In the case of KKRTSIEVSVKGALESHFLKCPKPSAQEITNLADSLQLEKEVFRVWFCNRRQKEKR [V43F], the abundance fitness is -1.02 ± 0.23.

Regarding KKRTSIEVSVKGALESHFLKCPKPSAQEITNLADSLQLEKEVDRVWFCNRRQKEKR [V43D], the abundance fitness is -0.972 ± 0.22.

KKRTSIEVSVKGALESHFLKCPKPSAQEITNLADSLQLEKEVPRVWFCNRRQKEKR [V43P]: the abundance fitness was -0.818 ± 0.13.

For KKRTSIEVSVKGALESHFLKCPKPSAQEITNLADSLQLEKEVHRVWFCNRRQKEKR [V43H], the abundance fitness was -0.673 ± 0.2.

On to KKRTSIEVSVKGALESHFLKCPKPSAQEITNLADSLQLEKEVRRVWFCNRRQKEKR [V43R], for which the abundance fitness is -0.931 ± 0.086.

Take KKRTSIEVSVKGALESHFLKCPKPSAQEITNLADSLQLEKEVQRVWFCNRRQKEKR [V43Q]: the abundance fitness was -0.88 ± 0.16.

On to KKRTSIEVSVKGALESHFLKCPKPSAQEITNLADSLQLEKEVIRVWFCNRRQKEKR [V43I], for which the abundance fitness is -0.341 ± 0.14.

KKRTSIEVSVKGALESHFLKCPKPSAQEITNLADSLQLEKEVGRVWFCNRRQKEKR [V43G]: the abundance fitness was -0.967 ± 0.088.

Turning to KKRTSIEVSVKGALESHFLKCPKPSAQEITNLADSLQLEKEVSRVWFCNRRQKEKR [V43S], the abundance fitness is -0.926 ± 0.12.

Take KKRTSIEVSVKGALESHFLKCPKPSAQEITNLADSLQLEKEVNRVWFCNRRQKEKR [V43N]: the abundance fitness was -0.493 ± 0.42.

Consider KKRTSIEVSVKGALESHFLKCPKPSAQEITNLADSLQLEKEVMRVWFCNRRQKEKR [V43M], for which the abundance fitness was -0.863 ± 0.15.

Take KKRTSIEVSVKGALESHFLKCPKPSAQEITNLADSLQLEKEVERVWFCNRRQKEKR [V43E]: the abundance fitness was -0.792 ± 0.12.
